Results: publication doi:10.1101/2021.01.06.425618

Experiments:
[1] = target: venus-PreIQ3-IQ-A1.3 (wild type) (rat) (UniProt P27732); experiment: FRET or BRET
[2] = target: venus-PreIQ3-IQ-A1.3 F[-2]A (rat); experiment: FRET or BRET

Chain of UniProt P27732 (P27732 whole entry): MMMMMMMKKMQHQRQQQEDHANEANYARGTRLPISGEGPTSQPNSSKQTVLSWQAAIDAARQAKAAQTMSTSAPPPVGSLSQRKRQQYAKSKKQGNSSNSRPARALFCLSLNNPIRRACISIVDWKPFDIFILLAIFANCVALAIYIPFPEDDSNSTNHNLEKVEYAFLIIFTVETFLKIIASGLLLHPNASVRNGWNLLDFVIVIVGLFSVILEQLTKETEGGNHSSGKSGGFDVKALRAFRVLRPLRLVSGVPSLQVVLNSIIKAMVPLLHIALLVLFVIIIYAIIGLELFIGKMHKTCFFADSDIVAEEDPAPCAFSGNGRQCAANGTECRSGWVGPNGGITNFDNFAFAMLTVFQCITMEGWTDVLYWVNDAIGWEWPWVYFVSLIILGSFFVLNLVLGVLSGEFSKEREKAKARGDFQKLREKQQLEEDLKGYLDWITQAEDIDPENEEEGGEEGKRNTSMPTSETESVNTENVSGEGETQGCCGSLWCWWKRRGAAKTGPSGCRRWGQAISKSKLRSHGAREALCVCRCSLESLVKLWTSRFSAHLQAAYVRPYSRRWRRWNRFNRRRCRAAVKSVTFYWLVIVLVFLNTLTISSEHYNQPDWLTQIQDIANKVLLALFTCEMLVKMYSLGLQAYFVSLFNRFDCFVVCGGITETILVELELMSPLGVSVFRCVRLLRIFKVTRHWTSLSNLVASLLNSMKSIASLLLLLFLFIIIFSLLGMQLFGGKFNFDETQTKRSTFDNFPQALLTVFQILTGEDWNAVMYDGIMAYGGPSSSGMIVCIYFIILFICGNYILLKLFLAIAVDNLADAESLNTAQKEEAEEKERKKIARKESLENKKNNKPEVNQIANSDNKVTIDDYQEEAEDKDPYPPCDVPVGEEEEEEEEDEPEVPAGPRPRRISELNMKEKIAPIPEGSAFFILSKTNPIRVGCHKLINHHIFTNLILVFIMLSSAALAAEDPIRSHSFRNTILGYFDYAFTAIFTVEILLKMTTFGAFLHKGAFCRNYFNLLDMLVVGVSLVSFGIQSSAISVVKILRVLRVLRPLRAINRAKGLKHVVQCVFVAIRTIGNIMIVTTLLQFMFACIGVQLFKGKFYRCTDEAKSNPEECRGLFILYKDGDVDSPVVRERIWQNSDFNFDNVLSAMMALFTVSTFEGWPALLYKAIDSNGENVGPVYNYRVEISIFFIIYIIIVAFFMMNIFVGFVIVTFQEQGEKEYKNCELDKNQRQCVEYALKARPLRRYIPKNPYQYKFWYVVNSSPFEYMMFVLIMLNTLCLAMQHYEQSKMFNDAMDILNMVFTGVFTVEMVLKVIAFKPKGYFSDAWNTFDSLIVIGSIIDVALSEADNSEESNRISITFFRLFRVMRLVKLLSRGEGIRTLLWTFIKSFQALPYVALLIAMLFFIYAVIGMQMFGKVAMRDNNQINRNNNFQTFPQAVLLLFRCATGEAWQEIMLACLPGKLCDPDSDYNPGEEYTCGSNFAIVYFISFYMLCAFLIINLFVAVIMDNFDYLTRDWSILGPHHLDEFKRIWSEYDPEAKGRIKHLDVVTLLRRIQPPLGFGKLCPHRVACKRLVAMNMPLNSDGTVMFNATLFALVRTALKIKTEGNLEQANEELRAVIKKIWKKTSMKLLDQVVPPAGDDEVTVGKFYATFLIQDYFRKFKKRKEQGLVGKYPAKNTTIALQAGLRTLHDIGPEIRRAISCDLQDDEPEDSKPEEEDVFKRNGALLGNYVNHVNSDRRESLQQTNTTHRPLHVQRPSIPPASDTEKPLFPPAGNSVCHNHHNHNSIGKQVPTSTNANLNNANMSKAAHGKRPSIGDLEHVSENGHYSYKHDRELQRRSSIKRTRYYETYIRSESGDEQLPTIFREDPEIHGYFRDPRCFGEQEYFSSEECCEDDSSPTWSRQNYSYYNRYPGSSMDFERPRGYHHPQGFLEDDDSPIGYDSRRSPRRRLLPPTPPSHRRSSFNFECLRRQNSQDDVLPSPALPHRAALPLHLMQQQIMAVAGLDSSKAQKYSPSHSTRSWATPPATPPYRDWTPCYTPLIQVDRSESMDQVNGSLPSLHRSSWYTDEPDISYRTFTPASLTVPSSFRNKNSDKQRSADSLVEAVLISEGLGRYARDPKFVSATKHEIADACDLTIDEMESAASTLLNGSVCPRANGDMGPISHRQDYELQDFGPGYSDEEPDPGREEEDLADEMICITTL

Substance: Cerulean-ICDI1.4 (wild type) (from UniProt O60840 1-1977) (domain or fragment)
- Ka [1]: 2.14e+07 M⁻¹
- Ka [2]: 5.8e+06 M⁻¹
